# Assay results reported in the supplement of paper PMC9170038.
# System: MS2 coat protein
# Experiment: apparent KD of MS2 coat protein; designed switch direction (-1 OFF switch, 1 ON switch): 1; higher = weaker reporter binding
# Summary of the method: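 The reported apparent KD is a per-design median over clusters, from curve fits of normalised cluster fluorescence. Protein titrations used SNAP-549-labelled MS2 coat protein, doubled from 0.7 or 1.5 nM to 3 µM, in Tris-HCl pH 7.5 buffer with KCl, MgCl2, BSA, DTT, tRNA and Tween-20, with no input, 200 uM small-molecule ligand, or an oligonucleotide input. The RNA switches were transcribed on Illumina chips by stalled E. coli RNA polymerase.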
# [1] = input ligand: microRNA oligo, concentration not stated
# [2] = Eterna round: R95, input ligand: FMN 200 uM
# [3] = Eterna round: R95, input ligand: microRNA oligo, concentration not stated
# [4] = Eterna round: R95, input ligand: none
Sequence,apparent KD of MS2 coat protein (input ligand: FMN 200 uM) [µM],apparent KD of MS2 coat protein [1] [µM],apparent KD of MS2 coat protein (input ligand: none) [µM],apparent KD of MS2 coat protein [2] [µM],apparent KD of MS2 coat protein [3] [µM],apparent KD of MS2 coat protein [4] [µM]
"GGUCGGAACCACAUGAGGAUCACCCAUGUUCCGGAAACGGUACAGGAUAUCUGUCCGAAAAGGUCAGAGAAGGGUGAACCGACC [Fiskers NG3ss - 77] (Eterna round: R96, puzzle: Same State NG 3)",1.09,0.349,0.312,–,–,–
"GGUCGGACCUACAUGAGGAUCACCCAUGUUCCGGAAACGGCACAGGAUAUCUGUCCGAAAAGGUCAGAGAAGGGUGAACCGACC [Fiskers NG3ss - 75] (Eterna round: R96, puzzle: Same State NG 3)",1,0.508,1.88,–,–,–
"GGUCGGUCCAACAUGAGGAUCACCCAUGUACCGGAAACGGCAUAGGAUAUCUGUCCGAAAAGGUCAGAGAAGGGUGAACCGACC [Fiskers NG3ss - 72] (Eterna round: R96, puzzle: Same State NG 3)",0.421,0.586,0.229,–,–,–
"GGUGCAAUAAACGCCUACAUGAGGAUCACCCAUGUAUGUAGGCAGGAUAUCGUUUGCAAAGCAAACGAGAAGGGCUGUAGUACC [Mat - Same State NG 3 - JL Mod - D41] (Eterna round: R96, puzzle: Same State NG 3)",0.0515,0.0823,0.142,–,–,–
"GGUGCCAAUAAAGCCUACAUGAGGAUCACCCAUGUAUGUAGGCAGGAUAUCGUAUGCAAAGCAUACGAGAAGGGCCGAGGCACC [Mat - Same State NG 3 - JL Mod - D56] (Eterna round: R96, puzzle: Same State NG 3)",0.0187,0.0291,0.037,–,–,–
"GGUGCGAAUAAAGCCUACAUGAGGAUCACCCAUGUAUGUAGGCAGGAUAUCGUUUGCAAAGCAAACGAGAAGGGCUGACGCACC [Mat - Same State NG 3 - JL Mod - D49] (Eterna round: R96, puzzle: Same State NG 3)",0.0293,0.0457,0.0624,–,–,–
GUAAAACAUGAGGAUCACCCAUGUAAUAAUAUGGGAGGAUAUCAGAAUGUAUGUAUGUAAUGAGAAGGCCUAAAUU [Mat - Same State 1 - Mod of Eli - D75] (puzzle: Same State 1),–,–,–,0.0734,0.61,0.695
GUAAAACAUGAGGAUCACCCAUGUCAAUGUAGUCGAGGAUAUGGGUAGCUAUGAGGCGUACUAGAAGGCGAAAAGU [Mat - Same State 1 - Mod of JL - D18] (puzzle: Same State 1),–,–,–,0.0918,0.0855,0.248
"GUAACAUGACGAGGAUAUGGAACAUGAGGAUCACCCAUGUAUGUUCCAUAACGCGAAUAAAGAAUCCAGAAGGCGUCGUGAAAU [Mat - Same State NG 2 - JL mod - D33] (Eterna round: R96, puzzle: Same State NG 2)",0.0221,0.118,0.12,–,–,–
GUAAGGCAAGCUUUUUUCUCGUAGUGUAAACAUGAGGAUCACCCAUGUGCUCGCCCUGGACCUUUGGAUCGCAGAAA [Tiesmain] (puzzle: Sensor for hsa-mir-208a),–,–,–,0.0364,0.0222,0.0463
"GUAAUCGUUAUAGGAUAUCAUGAGGAUUACCCAUGAGAAGGGUGAUCUCGAUCCAUAUUCAGAAAAUGAAUGUGGAUAGAUUGC [Omei NG1 A v2] (Eterna round: R96, puzzle: Same State NG 1)",1.01,0.292,1.15,–,–,–
GUACUACAUGAGGAUCACCCAUGUACGCCAGUACGAGGAUAUGCAUGGGCGCUAGCUGGUGCAGAAGGCGUAGUGC [Pin2Pin #6] (puzzle: Same State 1),–,–,–,0.021,0.024,0.0455
GUAGAUAUAAAGGAGGAUAUUCAAUGAGAGACAUGAGGAUCACCCAUGUGAGAGUGAGAUGAUAGGAAGAAGGCUUAGAGAGAUG [Altered State 2-6 - Jieux - Same State 2] (puzzle: Same State 2),–,–,–,0.0641,0.0549,0.072
GUAGAUAUAGAGGAGGAUAUUCAAUGAGGAACAUGAGGAUCACCCAUGUAAGAGAGAGAUGAUGAGAAGAAGGCUUAGAGGGAUG [Altered State 2-3 - Jieux - Same State 2] (puzzle: Same State 2),–,–,–,0.0465,0.0846,0.062
"GUAGCAGGCACAGGAUAUGUUGACCAGGGAGUACAUGAGGAUCACCCAUGUCCGACACACCGGCAAUAGAAGGGUGAGUGGCAG [Eternabot solution 17] (Eterna round: R96, puzzle: Same State NG 2)",0.0358,0.0449,0.0781,–,–,–
"GUAGCAUACCGAGGAUAUUCACAUGAGGAUCACCCAUGUAUUAAUAGGCCACAUUAGUGGCCUUGGGAGAAGGCGGAAUGCUAC [Xeonanis - 20 Mod48] (Eterna round: R96, puzzle: Same State NG 2)",0.0108,0.011,0.0146,–,–,–
"GUAGCAUACCGAGGAUAUUCAUAUAAUAAAUACAUGAGGAUCACCCAUGUAAGGCGAAAGCCUUGGGAGAAGGCGGAAUGCUAC [Xeonanis - 20 Mod59] (Eterna round: R96, puzzle: Same State NG 2)",0.0126,0.0319,0.0363,–,–,–
"GUAGCAUACCGAGGAUAUUCAUAUAAUAAAUACAUGAGGAUCACCCAUGUUAGGCGAAAGCCUUGGGAGAAGGCGGAAUGCUAC [Xeonanis - 20 Mod58] (Eterna round: R96, puzzle: Same State NG 2)",0.0144,0.0358,0.0448,–,–,–
"GUAGCAUACCGAGGAUAUUCAUAUAAUAUACAUGAGGAUCACCCAUGUUAUAGGCGAAAGCCUUGGGAGAAGGCGGAAUGCUAC [Xeonanis - 20 Mod62] (Eterna round: R96, puzzle: Same State NG 2)",0.00873,0.0153,0.0149,–,–,–
"GUAGCAUACCGAGGAUAUUCAUAUUAAACAUGAGGAUCACCCAUGUAUUAGGCCAAAAGGCCUUGGGAGAAGGCGGAAUGCUAC [Xeonanis - 20 Mod5] (Eterna round: R96, puzzle: Same State NG 2)",0.0246,0.0283,0.0483,–,–,–
"GUAGCAUACCGAGGAUAUUCAUAUUACAUGAGGAUCACCCAUGUUUUAGGCCGAUUACGGCCUUGGGAGAAGGCGGAAUGCUAC [Xeonanis - 20 Mod23] (Eterna round: R96, puzzle: Same State NG 2)",0.0138,0.0201,0.0288,–,–,–
GUAGCAUGCAGGCAGGAUAUUCAUAUUAAAACAUGAGGAUCACCCAUGUAGGCCAGAAGGCCUUGGGAGAAGGGCCACAUGCUAC [Xeonanis - 17] (puzzle: Same State 2),–,–,–,0.0369,0.595,0.8
"GUCAGCGAUUGAGGAUAUCACGUCGAUUAGACGUGAGAAGGCGAUCAUAACAUGAGGAUCACCCAUGUAUUACAUGAAGCUGAC [SSNG1/5-A2] (Eterna round: R96, puzzle: Same State NG 1)",0.0196,0.0175,0.0271,–,–,–
"GUCCAAAACACAGGAUAUCCCAGUCAUGAACUGGGAGAAGGGUGGCCACAUGAGGAUCACCCAUGUGAAGUGCGAGAGGCACGA [Arquarais] (Eterna round: R96, puzzle: Same State NG 1)",0.253,0.595,0.937,–,–,–
"GUCCGUAUCACAGGAUAUCCUAGUCAUGAUCUAGGAGAAGGGUGGCCACAUGAGGAUCACCCAUGUGAAGUGCCAGAGGCACGA [MOD2 Xexeraed] (Eterna round: R96, puzzle: Same State NG 1)",0.687,0.0648,0.149,–,–,–
"GUGCUCGUGUGAGGAUAUGUUGCCGGGUCGGCUGCAGAAGGUACUAUUAUACAUGAGGAUCACCCAUGUCGCUUUUCUCCGGUA [salish99_SSNG1_r04_921] (Eterna round: R96, puzzle: Same State NG 1)",0.088,0.0496,0.0735,–,–,–
